Reference: patent US20240117030A1 (Pfizer, published 2024)
Numbering of substitutions follows the chain as printed.

B1: IL413TSLP-0001 (other)
heavy: EVTLRESGPALVKPTQTLTLTCTFSGFSLSNFGEGLSWIRQPPGKGLEWLAHIYWDDDKRYNPSLKSRLTISKDTSRNQVVLTMTNMDPVDTATYYCARRETVFYWYFDVWGQGTTVTVSSASTKGPSVFPEAPSSKSTSGGTAALGCLVKDYFPEPVTVSWNSGALTSGVHTFPAVLQSSGLYSLGSVVTVPSSSLGTQTYICNVNHKPSNTKVDKKVEPKSCDKTHTCPPCPAPEAAGAPSVFLFPPKPKDTLMISRTPEVTCVVVDVSHEDPEVKFNWYVDGVEVHNAKTKPREEQYNSTYRVVSVLTVLHQDWLNGKEYKCKVSNKALPAPIEKTISKAKGQPREPQVYTLPPCREEMTKNQVSLSCAVKGFYPSDIAVEWESNGQPENNYKTTPPVLDSDGSFFLVSKLTVDKSRWQQGNVFSCSVMHEALHNHYTQKSLSLSPGK
chain 1: QMQLVESGGGVVQPGRSLRLSCAASGFTFRTYGMHWVRQAPGKGLEWVAVIWYDGSNKHYADSVKGRFTITRDNSKNTLNLQMNSLRAEDTAVYYCARAPQWELVHEAFDIWGQGTMVTVSSGQPKAAPSVTLFPPSSEELQANKATLVCLISDFYPGAVTVAWKADSSPVKAGVETTTPSKQSNNKYAASSYLSLTPEQWKSHRSYSCQVTHEGSTVEKTVAPTECSGGGGSEVQLVESGGGLVQPGGSLRLSCAASGFTFSSYAMSWVRQAPGKGLEWVASISSGDTTYYPDSVKGRFTISRDNAKNSLYLQMNSLRAEDTAVYYCARNEGYYFGLTLWGQGTLVTVSSASTKGPSVFPKAPSSKSTSGGTAALGCLVKDYFPEPVTVSWNSGALTSGVHTFPAVLQSSGLYSLSSSVTVPSSSLGTQTYICNVNHKPSNTKVDKKVEPKSCDKTHTCPPCPAPEAAGAPSVFLFPPKPKDTLMISRTPEVTCVVVDVSHEDPEVKFNWYVDGVEVHNAKTKPREEQYNSTYRVVSVLTVLHQDWLNGKEYKCKVSNKALPAPIEKTISKAKGQPREPQVCTLPPSREEMTKNQVSLWCLVKGFYPSDIAVEWESNGQPENNYKTTPPVLDSDGSFFLYSKLTVDKSRWQQGNVFSCSVMHEALHNHYTQKSLSLSPGK
light 1: DIQMTQSPSSLSASVGDRVTITCKASQSVDEDGDSYMNWYQQKPGKAPKLLIYAASNLESGVPSRFSGSGSGTDFTLTISSLQPEDFATYYCQQSNEDPPTFGGGTKVEIKRTVAAPSVFIFPPSDEQLKSGTASVSCLLNNFYPREAKVQWKVDNALQSGNSQESVTEQDSKDSTYSLKSTLTLSKADYEKHKVYACEVTHQGLSSPVTKSFNRGEC
light 2: B1 light 1 with Q27E, E31H, D32F, D34W, Y36L, M37V, N38H, A54R, P100W, K180D
chain 2: SYVLTQPPSVSVAPGQTARITCGGNNLGSKSVHWYQQKPGQAPVLVVYDDSDRPSWIPERFSGSNSGNTATLTISRGEAGDEADYYCQVWDSSSDHVVFGGGTKLTVLASTKGPSVFPLAPSSKSTSGGTAALGCLVKDYFPEPVTVSWNSGALTSGVHTFPAVLQSSGLYSLSSVVTVPSSSLGTQTYICNVNHKPSNTKVDKKVEPKSC
B2: IL413TSLP-0008 (other)
heavy: EVQLVESGGGLVQPGGSLRLSCAASGFTFSSYAMSWVRQAPGKGLEWVASISSGDTTYYPDSVKGRFTISRDNAKNSLYLQMNSLRAEDTAVYYCARNEGYYFGLTLWGQGTLVTVSSASTKGPSVFPKAPSSKSTSGGTAALGCLVKDYFPEPVTVSWNSGALTSGVHTFPAVLQSSGLYSLSSSVTVPSSSLGTQTYICNVNHKPSNTKVDKKVEPKSCDKTHTCPPCPAPEAAGAPSVFLFPPKPKDTLMISRTPEVTCVVVDVSHEDPEVKFNWYVDGVEVHNAKTKPREEQYNSTYRVVSVLTVLHQDWLNGKEYKCKVSNKALPAPIEKTISKAKGQPREPQVCTLPPSREEMTKNQVSLWCLVKGFYPSDIAVEWESNGQPENNYKTTPPVLDSDGSFFLYSKLTVDKSRWQQGNVFSCSVMHEALHNHYTQKSLSLSPGK
chain 1: SYVLTQPPSVSVAPGQTARITCGGNNLGSKSVHWYQQKPGQAPVLVVYDDSDRPSWIPERFSGSNSGNTATLTISRGEAGDEADYYCQVWDSSSDHVVFGGGTKLTVLASTKGPSVFPLAPSSKSTSGGTAALGCLVKDYFPEPVTVSWNSGALTSGVHTFPAVLQSSGLYSLSSVVTVPSSSLGTQTYICNVNHKPSNTKVDKKVEPKSCGGGGSEVTLRESGPALVKPTQTLTLTCTFSGFSLSNFGEGLSWIRQPPGKGLEWLAHIYWDDDKRYNPSLKSRLTISKDTSRNQVVLTMTNMDPVDTATYYCARRETVFYWYFDVWGQGTTVTVSSASTKGPSVFPEAPSSKSTSGGTAALGCLVKDYFPEPVTVSWNSGALTSGVHTFPAVLQSSGLYSLGSVVTVPSSSLGTQTYICNVNHKPSNTKVDKKVEPKSCDKTHTCPPCPAPEAAGAPSVFLFPPKPKDTLMISRTPEVTCVVVDVSHEDPEVKFNWYVDGVEVHNAKTKPREEQYNSTYRVVSVLTVLHQDWLNGKEYKCKVSNKALPAPIEKTISKAKGQPREPQVYTLPPCREEMTKNQVSLSCAVKGFYPSDIAVEWESNGQPENNYKTTPPVLDSDGSFFLVSKLTVDKSRWQQGNVFSCSVMHEALHNHYTQKSLSLSPGK
light 1: B1 light 1 with Q27E, E31H, D32F, D34W, Y36L, M37V, N38H, A54R, P100W, K180D
light 2: B1 light 1
chain 2: QMQLVESGGGVVQPGRSLRLSCAASGFTFRTYGMHWVRQAPGKGLEWVAVIWYDGSNKHYADSVKGRFTITRDNSKNTLNLQMNSLRAEDTAVYYCARAPQWELVHEAFDIWGQGTMVTVSSGQPKAAPSVTLFPPSSEELQANKATLVCLISDFYPGAVTVAWKADSSPVKAGVETTTPSKQSNNKYAASSYLSLTPEQWKSHRSYSCQVTHEGSTVEKTVAPTECS
B3: IL413TSLP-0002 (other)
heavy: B2 heavy
chain 1: QMQLVESGGGVVQPGRSLRLSCAASGFTFRTYGMHWVRQAPGKGLEWVAVIWYDGSNKHYADSVKGRFTITRDNSKNTLNLQMNSLRAEDTAVYYCARAPQWELVHEAFDIWGQGTMVTVSSGQPKAAPSVTLFPPSSEELQANKATLVCLISDFYPGAVTVAWKADSSPVKAGVETTTPSKQSNNKYAASSYLSLTPEQWKSHRSYSCQVTHEGSTVEKTVAPTECSGGGGSEVTLRESGPALVKPTQTLTLTCTFSGFSLSNFGEGLSWIRQPPGKGLEWLAHIYWDDDKRYNPSLKSRLTISKDTSRNQVVLTMTNMDPVDTATYYCARRETVFYWYFDVWGQGTTVTVSSASTKGPSVFPEAPSSKSTSGGTAALGCLVKDYFPEPVTVSWNSGALTSGVHTFPAVLQSSGLYSLGSVVTVPSSSLGTQTYICNVNHKPSNTKVDKKVEPKSCDKTHTCPPCPAPEAAGAPSVFLFPPKPKDTLMISRTPEVTCVVVDVSHEDPEVKFNWYVDGVEVHNAKTKPREEQYNSTYRVVSVLTVLHQDWLNGKEYKCKVSNKALPAPIEKTISKAKGQPREPQVYTLPPCREEMTKNQVSLSCAVKGFYPSDIAVEWESNGQPENNYKTTPPVLDSDGSFFLVSKLTVDKSRWQQGNVFSCSVMHEALHNHYTQKSLSLSPGK
light 1: B1 light 1 with Q27E, E31H, D32F, D34W, Y36L, M37V, N38H, A54R, P100W, K180D
light 2: B1 light 1
chain 2: B1 chain 2
B4: IL413TSLP-0007 (other)
heavy: B1 heavy
chain 1: SYVLTQPPSVSVAPGQTARITCGGNNLGSKSVHWYQQKPGQAPVLVVYDDSDRPSWIPERFSGSNSGNTATLTISRGEAGDEADYYCQVWDSSSDHVVFGGGTKLTVLASTKGPSVFPLAPSSKSTSGGTAALGCLVKDYFPEPVTVSWNSGALTSGVHTFPAVLQSSGLYSLSSVVTVPSSSLGTQTYICNVNHKPSNTKVDKKVEPKSCGGGGSEVQLVESGGGLVQPGGSLRLSCAASGFTFSSYAMSWVRQAPGKGLEWVASISSGDTTYYPDSVKGRFTISRDNAKNSLYLQMNSLRAEDTAVYYCARNEGYYFGLTLWGQGTLVTVSSASTKGPSVFPKAPSSKSTSGGTAALGCLVKDYFPEPVTVSWNSGALTSGVHTFPAVLQSSGLYSLSSSVTVPSSSLGTQTYICNVNHKPSNTKVDKKVEPKSCDKTHTCPPCPAPEAAGAPSVFLFPPKPKDTLMISRTPEVTCVVVDVSHEDPEVKFNWYVDGVEVHNAKTKPREEQYNSTYRVVSVLTVLHQDWLNGKEYKCKVSNKALPAPIEKTISKAKGQPREPQVCTLPPSREEMTKNQVSLWCLVKGFYPSDIAVEWESNGQPENNYKTTPPVLDSDGSFFLYSKLTVDKSRWQQGNVFSCSVMHEALHNHYTQKSLSLSPGK
light 1: B1 light 1
light 2: B1 light 1 with Q27E, E31H, D32F, D34W, Y36L, M37V, N38H, A54R, P100W, K180D
chain 2: B2 chain 2

Legend:
Experiment in all cases: cell-based or functional assay
[1] = molecular target: T1, recombinant human IL-4 (human, UniProt P05112 25-153)
T1 sequence (looked up): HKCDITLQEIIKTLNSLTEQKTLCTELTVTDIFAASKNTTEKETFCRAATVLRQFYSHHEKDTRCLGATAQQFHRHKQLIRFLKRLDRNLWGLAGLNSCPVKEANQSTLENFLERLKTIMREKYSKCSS

[2] = molecular target: recombinant human TSLP (glycosylated long form) (human, UniProt Q969D9 29-159)
[3] = molecular target: recombinant human IL-13 (human, UniProt P35225 35-146)
Chain of recombinant human IL-13 (P35225 35-146 limits assumed): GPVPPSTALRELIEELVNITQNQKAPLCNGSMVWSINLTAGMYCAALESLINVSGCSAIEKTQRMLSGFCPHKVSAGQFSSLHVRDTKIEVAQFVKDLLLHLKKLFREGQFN

Binder | a-hIL-4 bioassay IC50, pM) [1] | a-TSLP TARC bioassay (IC50; pM) [2] | a-hIL-13 bioassay (IC50, pM) [3]
B1 | 7.15 pM | 12.6 pM | 47 pM
B2 | 9.07 pM | 17.7 pM | 10.6 pM
B3 | 8.59 pM | 16.4 pM | 10.6 pM
B4 | 7.09 pM | 11.7 pM | 46.8 pM
